Data: patent publication US20130115220A1, “METHOD FOR PREVENTION OR TREATMENT OF METABOLIC SYNDROME” (DAINIPPON SUMITOMO PHARMA CO., LTD., priority 2010, published 2013)

Tested on: 3T3-L1 preadipocytes
Assay: Differentiation of 3T3-L1 preadipocytes into mature adipocytes, lipid droplet formation by oil-red-O
Type: cell-based
Details: human rAIM used for AIM loading
Protocol: To examine the function of AIM produced by macrophage that infiltrated into adipose tissue on the surrounding adipocytes, an experiment was performed to load AIM in the culture process for differentiation of 3T3-L1 preadipocytes into mature adipocytes.
As AIM, recombinant AIM protein (rAIM) of mouse was used. rAIM was prepared by culturing human-derived HEK293T cells transfected with a vector expressing mouse AIM (pCAGGS-mAIM-HA plasmid) in a serum-free medium (FreeStyle™ 293 Expression Medium; Invitrogen). rAIM was purified from the culture supernatant thereof using an anti-HA antibody column. In other Reference Examples shown below, AIM used was a similar rAIM protein. AIM was loaded by adding AIM to a culture medium at a concentration of 5 μg/ml.
In addition, differentiation of 3T3-L1 cells was induced as shown in FIG. 13 by first proliferating 3T3-L1 cells by cultivating for 4 days (day(−2)-day 2), after which cultivating in a culture medium containing insulin, dexamethasone (DEX) and isobutylmethylxanthine (IBMX) for 2 days (day 2-day 4) to start differentiation induction stimulation, and further cultivating in a culture medium containing insulin for 2 days (day 4-day 6).
After the differentiation induction stimulation period (day 2-day 6), the cells were continuously cultured in a culture medium free of such differentiation induction stimulation factors. Then, the cells on day 10 day from the start of the differentiation induction stimulation (day 12) were stained with oil-red-O, and the state of differentiation of 3T3-L1 cells into mature adipocytes was observed.

B1: human rAIM: human AIM protein labeled with HA-tag produced in HEK293T cells (protein)
chain: SPSGVRLVGGLHRCEGRVEVEQKGQWGTVCDDGWDIKDVAVLCRELGCGAASGTPSGILYEPPAEKEQKVLIQSVSCTGTEDTLAQCEQEEVYDCSHDEDAGASCENPESSFSPVPEGVRLADGPGHCKGRVEVKHQNQWYTVCQTGWSLRAAKVVCRQLGCGRAVLTQKRCNKHAYGRKPIWLSQMSCSGREATLQDCPSGPWGKNTCNHDEDTWVECEDPFDLRLVGGDNLCSGRLEVLHKGVWGSVCDDNWGEKEDQVVCKQLGCGKSLSPSFRDRKCYGPGVGRIWLDNVRCSGEEQSLEQCQHRFWGFHDCTHQEDVAVICSG
modifications: left off: small tags and cut ends
notes: human AIM protein labeled with HA-tag produced in HEK293T cells
  differentiation of mouse-derived 3T3-L1 cells: similarly suppressed
